For data set [1], the target named is T1, C/EBPβ (Homo sapiens, UniProt P17676 1-345). Description: EMSA, competition, supershift; LightShift Chemiluminescent EMSA kit; 6% native polyacrylamide gel, 0.5x TBE, 100 V, 60 min; binding buffer, salt, pH and temperature not stated. Conditions: protein: recombinant; chain copies: 2; label: biotin (5' of both strands); blunt. (In general: A gel shift assay detects complexes by their altered migration in electrophoresis.)

Data set [2] concerns the target T1, C/EBPβ. The experiment in a line: competition; 100-fold molar excess vs biotin CXCL5 WT probe; LightShift Chemiluminescent EMSA kit; 6% native polyacrylamide gel, 0.5x TBE, 100 V, 60 min; binding buffer, salt, pH and temperature not stated. Conditions: protein: recombinant; chain copies: 2; label: unlabeled; blunt.
Data set [3] deals with T1, C/EBPβ. Description: competition; 100-fold molar excess vs biotin CXCL2 WT probe; LightShift Chemiluminescent EMSA kit; 6% native polyacrylamide gel, 0.5x TBE, 100 V, 60 min; binding buffer, salt, pH and temperature not stated. The settings on record: protein: recombinant; chain copies: 2; label: unlabeled; blunt.
Data set [4] has as its target T1, C/EBPβ. The experiment in a line: competition; 100-fold molar excess vs biotin CXCL1 WT probe; LightShift Chemiluminescent EMSA kit; 6% native polyacrylamide gel, 0.5x TBE, 100 V, 60 min; binding buffer, salt, pH and temperature not stated. Conditions: protein: recombinant; chain copies: 2; label: unlabeled; blunt.

T1 sequence (P17676 whole entry): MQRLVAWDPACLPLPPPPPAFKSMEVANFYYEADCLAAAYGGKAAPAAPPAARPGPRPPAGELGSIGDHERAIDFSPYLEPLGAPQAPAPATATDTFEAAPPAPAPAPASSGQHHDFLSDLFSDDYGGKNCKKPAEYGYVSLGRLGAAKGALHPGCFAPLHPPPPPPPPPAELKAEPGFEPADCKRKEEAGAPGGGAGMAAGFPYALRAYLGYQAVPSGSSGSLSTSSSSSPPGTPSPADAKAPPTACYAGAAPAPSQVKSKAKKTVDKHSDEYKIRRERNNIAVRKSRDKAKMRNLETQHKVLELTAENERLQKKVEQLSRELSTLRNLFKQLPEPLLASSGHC

B1: CXCL1 WT probe (dsDNA)
DNA 1: TGGAACTTTCAAAATCCCCT
DNA 2: AGGGGATTTTGAAAGTTCCA
For B1, in data set [1], the binding result is given as “binds”.

B2: CXCL2 WT probe (dsDNA)
DNA 1: TAGAAGTGGTGTTTCACAACCTTACTGATA
DNA 2: TATCAGTAAGGTTGTGAAACACCACTTCTA
For the molecule B2, the binding result in data set [1] is “binds”.

B3: CXCL5 MUT probe (dsDNA)
DNA 1: CACTGTCAATTTTTATGGCAG
DNA 2: CTGCCATAAAAATTGACAGTG
As for B3, in data set [2], the binding result was “no binding”.

B4: CXCL2 MUT probe (dsDNA)
DNA 1: TAGAAGTGGTAGGGTCTCCTCTTACTGATA
DNA 2: TATCAGTAAGAGGAGACCCTACCACTTCTA
For the molecule B4, in data set [3], the binding result is listed as “no binding”.

B5: CXCL5 WT probe (dsDNA)
DNA 1: CACTGTCTTGCTCCATGGCAG
DNA 2: CTGCCATGGAGCAAGACAGTG
B5: the binding result in data set [1] is reported as “binds”.

B6: CXCL1 MUT probe (dsDNA)
DNA 1: TGGAAACGGTCCCCACCCCT
DNA 2: AGGGGTGGGGACCGTTTCCA
As to B6, the binding result in data set [4] is “no binding”.

The values are drawn from publication PMC13107026, “Intestinal epithelial C/EBPβ deficiency impairs colitis-associated tumorigenesis by disrupting CXCL1/CXCL2/CXCL5-CXCR2-mediated neutrophil infiltration”.
